Results on five substances are retold here after PMC2959088.

Sequence of Oryzacystatin-1 (P09229 39-140): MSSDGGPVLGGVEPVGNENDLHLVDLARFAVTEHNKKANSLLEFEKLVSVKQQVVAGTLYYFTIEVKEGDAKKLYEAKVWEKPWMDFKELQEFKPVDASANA

One experiment concerns the target human cathepsin L (human). Description: enzyme inhibition assay (residual activity on the fluorogenic substrate Z-Phe-Arg-MCA); cathepsin B or L (0.3 nM) incubated 5 min at 37°C with varied inhibitor in 100 mM sodium acetate pH 5.5, 2.5 mM DTT; substrate 0.01 mM; triplicate; Ki(app) by non linear regression (GraFit), Ki by Morrison's procedure.
In the case of Canecystatin-1 (natural protein), the Ki stood at 0.1 nM.

“Reverse Mutant 1 (T30I) (designed binder)”: the Ki was 1.93 nM. The substance “Reverse Mutant 2 (Q97L) (designed binder)” yielded a Ki of 11.7 nM. Same read-out and setting: under “Reverse Mutant 3 (T30I, Q97L) (designed binder)” stands 12.5 nM.

A further experiment deals with human cathepsin B (human). Described as above.
Substance Canecystatin-1 (natural protein) returned a Ki of 87.6 nM. On the same count and under the same terms, under “Oryzacystatin-1 (from UniProt P09229 39-140) (natural protein)” stands 78.5 nM.
